T1: CEACAM1 antigen (Diatheva) (UniProt P13688 35-428, limits assumed)
T1 construct: Purchased antigen; also called CEA Cell Adhesion Molecule 1
T1 sequence (looked up): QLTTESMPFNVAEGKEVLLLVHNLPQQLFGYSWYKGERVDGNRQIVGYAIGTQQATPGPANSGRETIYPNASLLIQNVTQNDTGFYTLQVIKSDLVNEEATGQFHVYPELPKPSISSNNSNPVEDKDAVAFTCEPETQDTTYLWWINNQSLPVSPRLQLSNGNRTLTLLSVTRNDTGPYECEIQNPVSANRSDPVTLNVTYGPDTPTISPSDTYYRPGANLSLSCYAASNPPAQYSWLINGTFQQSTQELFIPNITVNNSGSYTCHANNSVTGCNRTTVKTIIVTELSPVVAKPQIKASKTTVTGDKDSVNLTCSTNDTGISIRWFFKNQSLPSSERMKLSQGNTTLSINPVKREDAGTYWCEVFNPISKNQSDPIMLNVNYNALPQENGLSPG

B1: scFvDIATHIS-1 (scFv, V domains shown)
VH: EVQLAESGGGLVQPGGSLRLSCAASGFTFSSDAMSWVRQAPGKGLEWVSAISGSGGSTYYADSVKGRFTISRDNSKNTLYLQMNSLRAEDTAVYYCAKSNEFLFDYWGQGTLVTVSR
VL: SELTQDPAVSVALGQTVRITCQGDSLRSSYASWYRQRPGQAPVPVIYGKNNRPSGIPDRFSGSSSGNTASLTITGAQAEDEADYYCNSSYAWLPYVVFGGGTKLTVLG
notes: Single-chain fragment described in WO2011160859A1; Detection with an anti-His6 antibody implies a His6 tag
B2: DIA-12.3 IgG1 (antibody)
heavy: not shown
light: SELTQDPAVSVALGQTVRITCQGDSLRSSYASWYRQRPGQAPVPVIYGKNNRPSGIPDRFSGSSSGNTASLTITGAQAEDEADYYCNSSYAWLPYVVFGGGTKLTVLGGQPKANPTVTLFPPSSEELQANKATLVCLISDFYPGAVTVAWKADGSPVKAGVETTKPSKQSNNKYAASSYLSLTPEQWKSHRSYSCQVTHEGSTVEKTVAPTECS
notes: The preparation is named under assay in each row; also called IgG1 anti-CEACAM1 mAb; IgG1 clone 12
B3: IgG4 (S228P) anti-CEACAM1 mAb (antibody, not shown: large carriers)
heavy: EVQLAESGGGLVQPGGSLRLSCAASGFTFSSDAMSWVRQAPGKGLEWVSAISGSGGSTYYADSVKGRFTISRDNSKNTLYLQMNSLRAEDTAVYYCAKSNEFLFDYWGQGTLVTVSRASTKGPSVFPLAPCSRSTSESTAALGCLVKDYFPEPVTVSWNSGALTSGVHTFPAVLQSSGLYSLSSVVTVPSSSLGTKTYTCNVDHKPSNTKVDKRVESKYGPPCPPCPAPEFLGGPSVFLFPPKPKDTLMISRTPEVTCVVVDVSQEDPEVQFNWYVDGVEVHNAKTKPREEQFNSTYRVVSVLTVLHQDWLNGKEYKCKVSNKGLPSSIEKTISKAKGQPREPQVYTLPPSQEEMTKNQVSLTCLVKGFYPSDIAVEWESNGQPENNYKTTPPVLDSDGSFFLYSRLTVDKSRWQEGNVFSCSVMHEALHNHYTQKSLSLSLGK
light: B1 VL
notes: also called IgG4 clone 2

Legend:
[1] = target: T1, CEACAM1 antigen (Diatheva); experiment: ELISA titration on coated CEACAM1; detection with anti-His6 and anti-mouse HRP
Protocol: 96 wells microtiter plates (MAXISORB NUNC) were coated with 100 μl/well of CEACAM1 antigen (Diatheva) solution 1 μg/ml diluted in PBS pH 7.3 and incubated overnight (ON) at 37° C. Plates were washed five times with PBS added with 0.05% (v/v) Tween 20 pH 7.3 (PBST) (the same washing procedure was repeated after each incubation step during the assays) and then blocked with 1% (w/v) BSA dissolved in PBS (150 μl/well) and maintained at 37° C. for 60 min. After washing, serial dilutions of IgG1 or IgG4 in PBS containing 2% (w/v) not-fat dry milk (PBSM) were added to the plate (100 μl/well) and incubated for 90 min at 37° C. […] Finally, the detection was performed after addition of 2,2′-azino-bis(3-ethylbenzthiazoline-6-sulphonic acid) (ABTS; Roche, 10102946001) as substrate. The absorbance values were read by a microplate reader (Bio-Rad Laboratories) at 405 nm after 45 min. In FIG. 4 are reported the results obtained with IgG1 (black line) and IgG4 (grey line) antibodies purified after transient expression in HEK293T cells. The absorbance of the mock sample is shown by the dotted line. The ELISA assay highlighted a higher affinity for the CEACAM1 antigen of the antibody belonging to the IgG1 subclass compared to the same antibody with the IgG4 (S228P) constant region. […]

[2] = target: T1, CEACAM1 antigen (Diatheva); experiment: ELISA titration on coated CEACAM1; EC50 of the scFv against that of IgG4 clone 2
[3] = target: T1, CEACAM1 antigen (Diatheva); experiment: ELISA titration on coated CEACAM1; EC50 of the scFv against that of IgG1 clone 12
[4] = target: T1, CEACAM1 antigen (Diatheva); experiment: ELISA titration on coated CEACAM1; antibody from stable clone 12
Protocol: (§1) 96 wells microtiter plates (MAXISORB NUNC) were coated with 100 μl/well of CEACAM1 antigen (Diatheva) solution 1 μg/ml diluted in PBS pH 7.3 and incubated overnight (ON) at 37° C. Plates were washed five times with PBS added with 0.05% (v/v) Tween 20 pH 7.3 (PBST) (the same washing procedure was repeated after each incubation step during the assays) and then blocked with 1% (w/v) BSA dissolved in PBS (150 μl/well) and maintained at 37° C. for 60 min. After washing, serial dilutions of IgG1 or IgG4 in PBS containing 2% (w/v) not-fat dry milk (PBSM) were added to the plate (100 μl/well) and incubated for 90 min at 37° C. After washes, plates were incubated at 37° C. for 60 min with an anti-human Fc antibody HRP conjugated (Meridian) diluted 1:500 v/v in PBSM. Finally, the detection was performed after addition of 2,2′-azino-bis(3-ethylbenzthiazoline-6-sulphonic acid) (ABTS; Roche, 10102946001) as substrate. The absorbance values were read by a microplate reader (Bio-Rad Laboratories) at 405 nm after 45 min. In FIG. 4 are reported the results obtained with IgG1 (black line) and IgG4 (grey line) antibodies purified after transient expression in HEK293T cells. The absorbance of the mock sample is shown by the dotted line. […]

[5] = target: T1, CEACAM1 antigen (Diatheva); experiment: ELISA titration on coated CEACAM1; antibody purified after transient expression in HEK293T
Protocol: Purified antibodies were analysed for their reactivity against CEACAM1 antigen in ELISA titration assay as follow:
as §1

[6] = target: T1, CEACAM1 antigen (Diatheva); experiment: ELISA titration on coated CEACAM1; antibody from stable clone 2
Protocol: 96 wells microtiter plates (MAXISORB NUNC) were coated with 100 μl/well of CEACAM1 antigen (Diatheva) solution 1 μg/ml diluted in PBS pH 7.3 and incubated overnight (ON) at 37° C. Plates were washed five times with PBS added with 0.05% (v/v) Tween 20 pH 7.3 (PBST) (the same washing procedure was repeated after each incubation step during the assays) and then blocked with 1% (w/v) BSA dissolved in PBS (150 μl/well) and maintained at 37° C. for 60 min. After washing, serial dilutions of IgG1 or IgG4 in PBS containing 2% (w/v) not-fat dry milk (PBSM) were added to the plate (100 μl/well) and incubated for 90 min at 37° C. After washes, plates were incubated at 37° C. for 60 min with an anti-human Fc antibody HRP conjugated (Meridian) diluted 1:500 v/v in PBSM. Finally, the detection was performed after addition of 2,2′-azino-bis(3-ethylbenzthiazoline-6-sulphonic acid) (ABTS; Roche, 10102946001) as substrate. The absorbance values were read by a microplate reader (Bio-Rad Laboratories) at 405 nm after 45 min. In FIG. […] The absorbance of the mock sample is shown by the dotted line. The ELISA assay highlighted a higher affinity for the CEACAM1 antigen of the antibody belonging to the IgG1 subclass compared to the same antibody with the IgG4 (S228P) constant region. […]

| Binder | EC50 [1] [µg/mL] | fold of EC50 against IgG4 [2] [fold] | fold of EC50 against IgG1 [3] [fold] | EC50 [4] [µg/mL] | EC50 [5] [µg/mL] | EC50 [6] [µg/mL] |
| --- | --- | --- | --- | --- | --- | --- |
| B1 | 4.16 | ~2 | ~4 |  |  |  |
| B2 |  |  |  | 1.27 | 12.8 |  |
| B3 |  |  |  |  | 26.7 | 2.55 |
